Residue numbers refer to the chain shown, from its start. Names may count otherwise.
B1: Plk4 (Kinase + L1)-His6, kinase-dead (D154A), after GST-tag cleavage (domain or fragment, human, UniProt O00444 1-585, looked up)
chain: MATCIGEKIEDFKVGNLLGKGSFAGVYRAESIHTGLEVAIKMIDKKAMYKAGMVQRVQNEVKIHCQLKHPSILELYNYFEDSNYVYLVLEMCHNGEMNRYLKNRVKPFSENEARHFMHQIITGMLYLHSHGILHRDLTLSNLLLTRNMNIKIAAFGLATQLKMPHEKHYTLCGTPNYISPEIATRSAHGLESDVWSLGCMFYTLLIGRPPFDTDTVKNTLNKVVLADYEMPSFLSIEAKDLIHQLLRRNPADRLSLSSVLDHPFMSRNSSTKSKDLGTVEDSIDSGHATISTAITASSSTSISGSLFDKRRLLIGQPLPNKMTVFPKNKSSTDFSSSGDGNSFYTQWGNQETSNSGRGRVIQDAEERPHSRYLRRAYSSDRSGTSNSQSQAKTYTMERCHSAEMLSVSKRSGGGENEERYSPTDNNANIFNFFKEKTSSSSGSFERPDNNQALSNHLCPGKTPFPFADPTPQTETVQQWFGNLQINAHLRKTTEYDSISPNRDFQGHPDLQKDTSKNAWTDTKVKKNSDASDNAHSVKQQNTMKYMTALHSKPEIIQQECVFGSDPLSEQSKTRGMEPPWGYQNR
notes: human Polo-like kinase 4 (Plk4), kinase domain and Linker 1, residues 1-585, kinase-dead; also called KD mutant; KD; source: E. coli BL21 gold (DE3), purified (glutathione sepharose, Ni-agarose); GST cut off with PreScission protease; not shown: GST, N-terminal, cleaved; His6, C-terminal, kept
B2: GST-Plk4 (Kinase + L1)-His6, wild type, dephosphorylated with lambda phosphatase (domain or fragment, human, UniProt O00444 1-585, looked up)
chain: B1 chain with A154D
notes: human Polo-like kinase 4 (Plk4), kinase domain and Linker 1, residues 1-585; The same construct as m5 after removal of its autophosphorylation by λPP; also called λPP-treated WT Plk4 fragments; source: E. coli BL21 gold (DE3), purified (glutathione sepharose, eluted with glutathione; Ni-agarose); incubated with lambda phosphatase; not shown: GST, N-terminal, kept; His6, C-terminal, kept
B3: GST-Plk4 (Kinase + L1)-His6, kinase-dead (D154A) (domain or fragment, human, UniProt O00444 1-585, looked up)
chain: B1 chain
notes: human Polo-like kinase 4 (Plk4), kinase domain and Linker 1, residues 1-585, kinase-dead; also called KD; source: E. coli BL21 gold (DE3), purified (glutathione sepharose, eluted with glutathione; Ni-agarose); not shown: GST, N-terminal, kept; His6, C-terminal, kept

Columns and labels:
[1] = target: the molecule itself; assay: co-sedimentation; spin-down assay: 500 nM GST-Plk4(Kinase + L1)-His6 incubated at 30 °C for 1 h in kinase buffer (20 mM Tris pH 7.5, 300 or 500 mM NaCl, 30 μM ATP, 5 mM MgCl2, 1 mM β-mercaptoethanol), GST cut off with PreScission protease at 4 °C overnight, centrifuged at 21,500 x g for 10 min; supernatant and pellet by SDS-PAGE and CBB staining
[2] = target: the molecule itself; assay: Proteostat aggregation assay (dye fluorescence); 300 nM GST-Plk4 (Kinase + L1)-His6 in 20 mM Tris pH 7.5, 300 mM NaCl, 1 mM β-mercaptoethanol, 0.1 mM MnCl2, 37 °C for 1 h with or without lambda phosphatase; fluorescence normalised to the WT

Row | Protein | binding result [1] | binding result [2]
1 | B1 | binds | –
2 | B2 | – | binds
3 | B3 | – | binds
